Data reported in publication PMC5025758 (Nature Communications, 2016).

Biological target: the molecule itself
Experiment: crystal structure

B1: β-ketoacyl synthase KasA (Mycobacterium tuberculosis) (enzyme)
chain: SQPSTANGGFPSVVVTAVTATTSISPDIESTWKGLLAGESGIHALEDEFVTKWDLAVKIGGHLKDPVDSHMGRLDMRRMSYVQRMGKLLGGQLWESAGSPEVDPDRFAVVVGTGLGGAERIVESYDLMNAGGPRKVSPLAVQMIMPNGAAAVIGLQLGARAGVMTPVSACSSGSEAIAHAWRQIVMGDADVAVCGGVEGPIEALPIAAFSMMRAMSTRNDEPERASRPFDKDRDGFVFGEAGALMLIETEEHAKARGAKPLARLLGAGITSDAFHMVAPAADGVRAGRAMTRSLELAGLSPADIDHVNAHGTATPIGDAAEANAIRVAGCDQAAVYAPKSALGHSIGAVGALESVLTVLTLRDGVIPPTLNYETPDPEIDLDVVAGEPRYGDYRYAVNNSFGFGGHNVALAFGRY
notes: also called Rv2245
stoichiometry N: 2
